Results reported in patent US11491212.

Chain of Factor X (FX), P00742 (P00742 whole entry, looked up): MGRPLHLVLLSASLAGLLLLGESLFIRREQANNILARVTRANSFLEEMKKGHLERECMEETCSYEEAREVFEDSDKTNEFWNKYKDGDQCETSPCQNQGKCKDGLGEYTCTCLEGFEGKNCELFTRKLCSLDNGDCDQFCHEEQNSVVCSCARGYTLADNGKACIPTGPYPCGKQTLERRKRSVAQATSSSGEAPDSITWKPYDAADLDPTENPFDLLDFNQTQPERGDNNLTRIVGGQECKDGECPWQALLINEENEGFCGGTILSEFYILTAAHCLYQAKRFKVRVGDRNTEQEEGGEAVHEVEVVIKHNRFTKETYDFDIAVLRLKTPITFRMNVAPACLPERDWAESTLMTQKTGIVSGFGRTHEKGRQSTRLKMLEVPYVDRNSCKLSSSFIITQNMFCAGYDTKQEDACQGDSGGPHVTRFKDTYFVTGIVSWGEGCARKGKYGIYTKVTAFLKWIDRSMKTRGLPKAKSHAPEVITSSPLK
Chain of Factor X, P00742 (P00742 whole entry, looked up): as above

Protein | kcat (s^-1), activation of FX by FIXa in the Xase complex (Factor X (FX), P00742) [s⁻¹] | % of WT kcat/KM (Factor X, P00742) [%] | kcat/KM (Factor X, P00742) [M⁻¹ s⁻¹]
FIXa R318Y/R338E/T343R (protein) chain 1: not shown chain 2: not shown | 4.5 | 324 | 1.5e+08
FIXa Y155F/K247N/N249S/R318Y/R338E/T343R/E410N (protein) chain 1: not shown chain 2: not shown |  | 1091 | 5e+08
FIXa Y155F/R318Y/T343R/R403E (protein) chain 1: not shown chain 2: not shown | 5 | 154 | 7.1e+07
FIXa Y155F/K247N/N249S/T343R/E410N (protein) chain 1: not shown chain 2: not shown | 7.9 | 599 | 2.8e+08
FIXa Y155F/K247N/N249S/R318Y/R338E/T343R (protein) chain 1: not shown chain 2: not shown | 8.5 | 772 | 3.6e+08
FIXa K247N/N249S/R318Y/R338E/T343R (protein) chain 1: not shown chain 2: not shown | 8 | 840 | 3.9e+08
FIXa K247N/N249S/T343R/R403E/E410N (protein) chain 1: not shown chain 2: not shown | 8 | 285 | 1.3e+08
FIXa Y155F/T343R/R403E/E410N (protein) chain 1: not shown chain 2: not shown | 6.6 | 321 | 1.5e+08
FIXa Y155F/R318Y/R338E/T343R (protein) chain 1: not shown chain 2: not shown | 7.9 | 771 | 3.6e+08
